{
  "source": "paper PMC6908968",
  "about": "(Cell, 2019)",
  "key": {"[1]": {"target": "T1, thermolysin-cleaved EBOV GP on Jurkat-GP cells (cleaved GP) (Zaire ebolavirus, Makona (GP1 core …, strain))", "T1 chain 1": "not shown", "T1 chain 2": "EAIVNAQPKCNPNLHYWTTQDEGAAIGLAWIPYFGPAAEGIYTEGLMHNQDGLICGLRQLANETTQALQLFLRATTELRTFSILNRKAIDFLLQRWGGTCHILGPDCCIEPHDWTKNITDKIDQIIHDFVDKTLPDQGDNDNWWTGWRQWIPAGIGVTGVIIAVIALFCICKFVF"}, "[2]": {"target": "EBOV GP ectodomain residues 1-636 (GPec) (Zaire ebolavirus, strain  …, UniProt Q05320)"}},
  "data": [
    {"binder": "5.6.c2972 (antibody, V domains shown) VH: QVQLQESGPGLVKPSQTLSLTCAVSGGSIRSDDNYWSWIRQPPGKGLEWIGYIYHRGSTYYNPSLKNRVKISVDTSKNQFSLKLSSVTAADTAVYYCARDRIQVVPDGIVHYYYGMDVWGQGTTVTVSS VL: QSVLTQPPSVSAAPGQKVTISCSGSSSNIGNNYVSWYQQLPGTAPKLLIYDNNKRPSGIPDRFSGSKSGTSATLGITGLQTGDEADYYCGTWDNNLSAWVFGGGTKLTVL", "values": [
      {"measurement": "binding result", "setting": "[1]", "value": "binds"},
      {"measurement": "binding result", "setting": "[2]", "value": "binds"}
    ]},
    {"binder": "5.6.c2995 (antibody, V domains shown) VH: QVQLVESGGGVVQPGRSLRLSCAASGFSFSTYGMYWVRQAPGKGLEWVGVIWYDGSEKYHADFVKGRFTMSRDNSKNTLYLQMNSLRVEDTAVYYCARDLRPSTNSWYGYYYNAMDVWGQGTTVTVSS VL: QSVLTQPPSVSAAPGQRVTISCSGNSSNIGNNFVSWYQQLPGTAPKLLIYDNNSRPSGIPDRFSGSKSGTSATLGISGLQTGDEADYYCGSWDGSLSLWVFGGGTKLTVL", "values": [
      {"measurement": "binding result", "setting": "[1]", "value": "binds"},
      {"measurement": "binding result", "setting": "[2]", "value": "binds"}
    ]},
    {"binder": "5.6.c2998 (antibody, V domains shown) VH: EVQLVESGGGVVQPGGSLRLSCAASGFTFDDYAMHWVRQAPGKGLEWVSIITGDGGSRNYADSVKGRFTISRDNNKNSLYLQMNSLRSEDTALYYCAKEGGPDSSTFYYYGMDVWGQGTTVTVSS VL: DIQMTQSPSSVSASVGDRVTITCRASQDVSSWLAWYRQKPGRAPELLIYAASSLQSGVPSRFSGSGSGTDFTLTISSLQPEDFASYYCLQANSIPWTFGQGTKVEIK", "values": [
      {"measurement": "binding result", "setting": "[1]", "value": "binds"},
      {"measurement": "binding result", "setting": "[2]", "value": "binds"}
    ]},
    {"binder": "5.6.c3013 (antibody, V domains shown) VH: QVQLVQSGAEVKKPGASVKVSCKASGYTFTKYGISWMRQAPGQGLEWMGWISAYNGDTNYAQKLHGRLTMTTDTSTSTVYMELRSLRSDDTAIYYCARDLGELSSLKFYGMDVWGQGTTVTVSS VL: DIQLTQSPSFLSASVGDRVTITCRASQGISSFLAWYQQKPGKAPKILVYGASTLQSGVPSRFSGSGSGTEFTLTISSLQPEDFATYYCQQVNTFPFTFGPGTQVDFK", "values": [
      {"measurement": "binding result", "setting": "[1]", "value": "binds"},
      {"measurement": "binding result", "setting": "[2]", "value": "binds"}
    ]},
    {"binder": "5.6.c3014 (antibody, V domains shown) VH: QVQLVESGGGVVQPGRSLRLSCAASGFSFNSYGMHWVRQAPGKGLEWVAIIWYDGSDKYYADSVKGRFTISRDNSKNTLSLQMNSLRVEDSAVYYCARDPGHPSDLYYYYGMDVWGQGTTVTVSS VL: DIQMTQSPSSVSASVGDRVTITCRASQDISYWLAWYQQKPGKAPKLLIYSASSLQSGVPSRFSGSGSGTDFTLTISSLQPEDFATYYCQQTHTFPITFGQGTRLEIK", "values": [
      {"measurement": "binding result", "setting": "[1]", "value": "binds"},
      {"measurement": "binding result", "setting": "[2]", "value": "binds"}
    ]},
    {"binder": "5.6.c3021 (antibody, V domains shown) VH: QLHLQESGPGLVKPSETLSLTCTVSGGSINHDYYWGWIRQPPGKGLEWIGTIYYSGNSYYNPSLKSRVTISVDTSKNQFSLKLSSVTAADTAVYYCARSEEDSVFGVLKGLAFDIWGQGTMVTVSS VL: QSVLTQPPSVSGAPGQRVTISCTGSSSNIGAGYDVHWYQQPPGRAPKLLIYGNSNRASGVPDRFSGSKSGTSASLAITGLQAEDEADYYCQSYDSSLSGSVFGGGTKLTVL", "values": [
      {"measurement": "binding result", "setting": "[1]", "value": "binds"},
      {"measurement": "binding result", "setting": "[2]", "value": "binds"}
    ]},
    {"binder": "5.6.c3023 (antibody, V domains shown) VH: QVQLVESGGGVVQPGRSLRLSCAASGFTFRTYGLHWVRQAPGKGLEWVAFISNDGSSKYNVDSVKGRFTISRDNPKNTLYLQMNSLRTEDTAVYYCAKDTISVAIYGHFDTWGQGTLVTVSS VL: DVVMTQSPLSLPVTLGQPASISCRSSQSLVKSDGNTYLNWFQQRPGQSPRRLIYKVSTRDTGVPDRFSGSGSGTDFTLKISRVEAEDVAVYYCMQATHWPITFGGGTTVEIK", "values": [
      {"measurement": "binding result", "setting": "[1]", "value": "binds"},
      {"measurement": "binding result", "setting": "[2]", "value": "binds"}
    ]},
    {"binder": "5.6.c3027 (antibody, V domains shown) VH: QVQLVESGGGVVQPGRSLRLSCAASGFSFNNYGMHWVRQAPGKGLEWVAHIYFDGNYKFYIDSVKGRFTISRDNAKYTLYLQMNSLRVEDTAVYYCARDVRDGDDIFSGYHYGMDVWGQGTTVTVSS VL: DIQMTQSPSSVSASVGDRVSITCRASQGFTNWLAWYQQKPGKAPKLVIYAASSLQSGVPSRFSGSGSGTNFTLTISSLQPEDFATYYCQQANSFPLTFGGGTKVDVK", "values": [
      {"measurement": "binding result", "setting": "[1]", "value": "binds"},
      {"measurement": "binding result", "setting": "[2]", "value": "binds"}
    ]},
    {"binder": "5.6.c3053 (antibody, V domains shown) VH: QVQLVESGGGLVQPGRSLRLSCAASGFTFTNYGMQWVRQGPGKGLEWVALIWYDGYSKYYVDSVKGRFTISRDNSKNTLYLEMNSLRAEDTAVYYCARGNGYSSGWLDNWGQGTLVTVSS VL: DIQMTQSPSTLSASVGDRVTITCRASQSIDNWLAWYQQKPGKAPKVLIYKASSLESGVPSRFSGSASGTEFTLTISSLQPDDFATYYCQHYNSYSGTFGQGTKVEIK", "values": [
      {"measurement": "binding result", "setting": "[1]", "value": "binds"},
      {"measurement": "binding result", "setting": "[2]", "value": "binds"}
    ]},
    {"binder": "5.6.c3054 (antibody, V domains shown) VH: QVTLRESGPALVKPTQTLTLTCTFSGFSLSTSGMCVSWIRQPPGKALEWLALIDWNDGKYYTTSLKTRLTISKDTSKNQVVLTMTNMDPVDTATYYCARIFTSSDWFYDAFDLWGQGAMVTVSS VL: QIVMTQSPATLSVSPGERATLSCRASQSVNNNLAWYQQKPGQAPRLLISGASTRATGIPARFSGSGFGTEFTLTISSLQSEDFAVYYCQQYNTWPPLTFGPGTRVDIK", "values": [
      {"measurement": "binding result", "setting": "[1]", "value": "binds"},
      {"measurement": "binding result", "setting": "[2]", "value": "binds"}
    ]},
    {"binder": "5.6.c3057 (antibody, V domains shown) VH: QVQLVESGGGVVQSGRSLRLSCAASGFTLSSYGMHWVRQAPGKGLEWVATVSFDGNNEYYADSVKGRFTISRDKSKNTLYLQMNSLRPEDTAMYYCAKEPLPARGDFWSGHYSPPSYYYYGMDVWGQGTTVTVSS VL: QTVVTQEPSFSVSPGGTVTLTCGLRSGSVSTNYYPSWYQQTPGQPPRTLIYNTNTRSFGVPDRFSGSILGNRAALTITGAQADDESDYYCLLYMDSGIWVFGGGTKLTVL", "values": [
      {"measurement": "binding result", "setting": "[1]", "value": "binds"},
      {"measurement": "binding result", "setting": "[2]", "value": "binds"}
    ]},
    {"binder": "5.6.c3067 (antibody, V domains shown) VH: EVQLVESGGGLVQPGGSLRLSCAASGFTFSNYWMTWVRQAPGKGLEWVGNIKEDGSEKYYVDSVKGRFTISRDNAKNSLYLQLNNLRAEDTAVYYCAREPAGFVFEGGFDYWGQGTLVTVSS VL: DIQMTQSPSSVSASVGDRVTILCRASQYITTWLAWYQQKPGRAPKLLISAASTLQSGVPSRFSGSGSGTDFTLTISSLQPEDFATYYCQQAHSLPWTFGQGTKVEIK", "values": [
      {"measurement": "binding result", "setting": "[1]", "value": "binds"},
      {"measurement": "binding result", "setting": "[2]", "value": "binds"}
    ]},
    {"binder": "5.6.c3083 (antibody, V domains shown) VH: QVQLVQSGVEVKKPGASVKLSCKASGYTFTTYGISWVRQAPGQGLEWMGWISAYDDNANYGQQFQGRVTMTTDTSTSTAYMELRSLRSDDTAVYFCARCGGEFIWGWLDPWGQGTLVTVSS VL: QSALTQPASVSGSPGQSITISCTGTSSDIGGYNYVSWYQQHPGLAPKLMIYDVSYRPSGVSNRFSGSKSGNTASLTISGLQAEDEADYYCSSYTSSGTLVFGGGTKLTVL", "values": [
      {"measurement": "binding result", "setting": "[1]", "value": "binds"},
      {"measurement": "binding result", "setting": "[2]", "value": "binds"}
    ]},
    {"binder": "5.6.c3108 (antibody, V domains shown) VH: QVQLVESGGGVVQPGRSLRLSCAASGFTFSNSDMHWVRQAPGKGLEWVALIYFDGSSQYYVDSVKGRFTISRDNSKNTLYLQMNSLRVEDTAVYYCAREAAIVGAIFYDGMDVWGQGTTVTVSS VL: EIVMTQSPATLSVSPGEGATLSCRASQNVGFNVAWYQQRPGQAPRLLIYGASTRATGVPARFSGSGSGTEFTLTISSLQSEDFAVYYCQQCNNWPPLTFGGGTKVEIK", "values": [
      {"measurement": "binding result", "setting": "[1]", "value": "binds"},
      {"measurement": "binding result", "setting": "[2]", "value": "binds"}
    ]},
    {"binder": "5.6.c3113 (antibody, V domains shown) VH: EVQMVESGGGLAQPGGSLRLSCAASGFTFSSYEMSWVRQAPGKGLEWVSYISTSGNTIYYADSVKGRFTISRDNAKNSLYLQMNNLRAEDTAFYYCAANHGDNLFWYFDLWGRGTLVTVSS VL: DIQLIQSPSFLSASVGDRVTITCRASQGISSYLAWYQQKLGKAPKLLMYAASTLQSGVPSRFSGSGSGTEFTLTISSLQPEDFATYYCQQLNGYPPTFGQGTKLEIK", "values": [
      {"measurement": "binding result", "setting": "[1]", "value": "binds"},
      {"measurement": "binding result", "setting": "[2]", "value": "binds"}
    ]},
    {"binder": "5.6.c3133 (antibody, V domains shown) VH: QVQLVQSGAEVKKPGSSVKVSCKTSGGTLSTYPFSWVRQAPGQGLEWMGGIIPFFGTTNYAQKFQGRLTMTADKSTNTVYMELGSLRSEDTAVYYCAREHGDDIYYYFAMDVWGQGTTVTVSS VL: not shown", "values": [
      {"measurement": "binding result", "setting": "[1]", "value": "binds"},
      {"measurement": "binding result", "setting": "[2]", "value": "binds"}
    ]},
    {"binder": "5.6.c3151 (antibody, V domains shown) VH: EVQLVESGGGVVQPGGSLRLSCAASGFDFDDYPMNWVRQAPGKGLELVFLISGDGGSTYSADSVKGRFTISRDNSKNSLYLQMNSLRTEDTALYYCAKDAVDNSGLYYYGMDVWGQGTTVIVSS VL: DIQMTQSPSSVSASVGDRVTINCRASQGISGWLAWYQQKPGKAPKLLIYAASSLQSGVPSRFSGSGSGTDFTLAISSLQPEDLATYYCQQTHSFPFTFGPGTKVGIK", "values": [
      {"measurement": "binding result", "setting": "[1]", "value": "binds"},
      {"measurement": "binding result", "setting": "[2]", "value": "binds"}
    ]},
    {"binder": "5.6.c3166 (antibody, V domains shown) VH: EVHLVESGGGLVQPGGSLRLSCAASGFSFNTHWMNWVRQAPGKGLEWVANIKQNGGEKYYVDSVKGRFTISRDNAKNTLFLQMNSLRGDDTAVYYCARGPPPAAPEDLFYNYTMDVWGQGTTVTVSS VL: EIVMTQSPATLSVSPGERATLSCRASQSVINHLAWYQQKPGQTPRLLIYGASTRATGIPARFSGSGSGTEFTLTISSLQSEDFAVYFCQQYNTWPPFTFGGGTKVEIK", "values": [
      {"measurement": "binding result", "setting": "[1]", "value": "binds"},
      {"measurement": "binding result", "setting": "[2]", "value": "binds"}
    ]},
    {"binder": "5.6.c3168 (antibody, V domains shown) VH: EVQLVESGGGLVQPGGSLRLSCAASGFTLSNYDMNWVRQAPGKRLEWVSYISSSGSTTYYVDSVKGRFTISRDNAKNSLYLQMNSLRAEDTAVYYCARGHNNWFLYFDSWGQGTLVTVSS VL: EILMTQSPATLSVSPGERATLSCRASQSVSSNLAWYQQVPGQAPRLLISDASTRATGIPARFSGSGSGTEFTLTINSLQSEDFAVYYCQQYNDWPGTFGQGTKLEIK", "values": [
      {"measurement": "binding result", "setting": "[1]", "value": "binds"},
      {"measurement": "binding result", "setting": "[2]", "value": "binds"}
    ]}
  ]
}
